Source: article PMC6780499, “Characterization, Recombinant Production and Structure-Function Analysis of NvCI, A Picomolar Metallocarboxypeptidase Inhibitor from the Marine Snail Nerita versicolor” (Marine Drugs, 2019)
No end group written: not given here.

What was measured:
Test in all cases: Ki determination, tight-binding inhibition of metallocarboxypeptidase
Type in all cases: biochemical
hCPA1 = target: T1, hCPA1 (Homo sapiens, UniProt P15085); details: tight-binding equation fit, equilibrium conditions; substrate AAFP 0.1mM, 20mM Tris-HCl pH 7.5, 500mM NaCl; preincubation 15 min; 37 °C; means (n = 3) ± SD
T1 sequence (P15085 111-419): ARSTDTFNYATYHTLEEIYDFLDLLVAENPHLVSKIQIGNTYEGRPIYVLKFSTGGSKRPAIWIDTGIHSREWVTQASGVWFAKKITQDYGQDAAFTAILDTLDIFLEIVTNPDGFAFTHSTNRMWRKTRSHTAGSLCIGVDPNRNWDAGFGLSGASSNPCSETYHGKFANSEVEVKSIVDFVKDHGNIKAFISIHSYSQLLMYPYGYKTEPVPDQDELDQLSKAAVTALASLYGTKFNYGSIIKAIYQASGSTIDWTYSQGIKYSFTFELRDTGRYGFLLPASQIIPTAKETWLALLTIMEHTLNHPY
Experimental: (§1) Inhibitory activities against CPA- and CPB-type forms (bovine and human variants of CPA1, CPA2, CPA4, CPB1, and TAFI) were assayed for all extracts, subject to the experimental conditions that enzyme (E), substrate (S) and inhibitor (I) concentrations as well as the [I]/[E] ratio and preincubation time followed the requirements for tight-binding inhibitor assays. Similar approaches were followed to measure the activities of proteases of different catalytic types, like pepsin, papain, trypsin and subtilisin [45, 46, 47, 48]. All assays were performed in triplicate at 25 °C in a multiplexed manner. For 96-well assays an iEMS spectrophotometer reader/dispenser FM (Labsystems, Finland) was used with a final reaction volume of 250 μL. For cuvette assays, a Cary 400 Bio spectrophotometer (Varian Inc., Palo Alto, CA, USA) spectrophotometer was used with a final reaction volume of 1 ml. The reactions were followed at 5 s intervals for 5 min and recorded as initial velocities. In the protease inhibition assays, mixtures of activity buffer, biological sample and enzyme were preincubated at 25 °C for 10min, before substrate addition. The assay conditions were as follows: for CPA-like enzymes, 7.0nM CPA, 0.1mM AAFP substrate in 20mM Tris-HCl pH 7.5, 500mMNaCl, 1% v/v dimethyl sulfoxide (DMSO), 0.05% w/v BRIJ-35 was used. For CPB-like enzymes, CPB 3.0nM CPB, 0.1mM AAFA substrate and activity buffer of 20 mM Tris-HCl pH [50].
(§2) The Ki values of natural and recombinant NvCI against bCPA1, hCPA1, hCPA2, rat CPA3, hCPA4, hCPB1, bTAFI, hTAFI, hCPD and hCPZ were determined by measuring the enzymatic residual activity (Vi/V0 = a) at different inhibitor concentrations and using a fixed enzyme and substrate concentrations as described above, where vi and v0 are the fraction of enzymatic activity in the presence and absence of inhibitor, respectively, in terms of initial velocities. The determination of Ki values was carried out on equilibrium conditions ([E0]/Ki ≤ 10), using a previously determined preincubation time of 15 min, required to establish enzyme-inhibitor equilibrium. Working temperature was 37 °C. The best estimates of Ki values were obtained by fitting the experimental data to the equation for tight-binding inhibitors by non-linear regression using the GraphPad Prisma 5 software (GraphPad Software, Inc., San Diego, CA, USA) at p < 0.05. The real Ki values against each of these A/B-type MCPs were calculated according to the equation described by Morrison and Copeland [19, 20].

hCPA2 = target: T2, hCPA2 (Homo sapiens, UniProt P48052); details: tight-binding equation fit, equilibrium conditions; substrate AAFP 0.1mM, 20mM Tris-HCl pH 7.5, 500mM NaCl; preincubation 15 min; 37 °C; means (n = 3) ± SD
T2 sequence (P48052 115-419): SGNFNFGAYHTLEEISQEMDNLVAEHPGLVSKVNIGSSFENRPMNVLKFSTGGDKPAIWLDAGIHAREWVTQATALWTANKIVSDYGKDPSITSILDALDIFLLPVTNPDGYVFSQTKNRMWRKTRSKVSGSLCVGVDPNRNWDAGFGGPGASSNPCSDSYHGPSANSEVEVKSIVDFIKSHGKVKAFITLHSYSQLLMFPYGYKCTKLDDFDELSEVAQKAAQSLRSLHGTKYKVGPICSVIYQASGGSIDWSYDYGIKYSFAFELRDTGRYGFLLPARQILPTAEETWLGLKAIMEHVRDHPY
Experimental: as §1, §2

hCPZ = target: T3, hCPZ (Homo sapiens, UniProt Q66K79); details: NI: No inhibitory activity detected for the [I]0 range from 1 nM to 1 mM
T3 sequence (Q66K79 19-652): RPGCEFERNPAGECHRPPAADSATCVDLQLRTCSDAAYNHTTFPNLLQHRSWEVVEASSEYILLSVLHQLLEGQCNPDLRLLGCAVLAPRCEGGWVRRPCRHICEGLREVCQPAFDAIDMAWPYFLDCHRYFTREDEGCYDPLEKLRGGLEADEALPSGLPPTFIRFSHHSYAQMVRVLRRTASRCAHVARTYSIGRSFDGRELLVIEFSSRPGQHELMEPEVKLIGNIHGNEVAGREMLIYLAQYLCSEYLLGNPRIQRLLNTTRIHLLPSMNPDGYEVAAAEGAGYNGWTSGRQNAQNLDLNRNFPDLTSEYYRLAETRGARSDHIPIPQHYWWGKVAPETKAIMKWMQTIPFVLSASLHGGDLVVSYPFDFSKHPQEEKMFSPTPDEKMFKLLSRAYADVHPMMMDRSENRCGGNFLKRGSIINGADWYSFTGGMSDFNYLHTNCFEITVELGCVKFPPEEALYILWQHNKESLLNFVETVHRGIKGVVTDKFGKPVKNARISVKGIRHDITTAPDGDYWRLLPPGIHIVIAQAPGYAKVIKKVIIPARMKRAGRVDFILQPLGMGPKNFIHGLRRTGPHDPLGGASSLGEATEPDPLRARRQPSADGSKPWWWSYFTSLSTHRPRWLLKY
Experimental: as §1, §2

hCPA4 = target: T4, hCPA4 (Homo sapiens, UniProt Q9UI42); details: tight-binding equation fit, equilibrium conditions; substrate AAFP 0.1mM, 20mM Tris-HCl pH 7.5, 500mM NaCl; preincubation 15 min; 37 °C; means (n = 3) ± SD
T4 sequence (Q9UI42 114-421): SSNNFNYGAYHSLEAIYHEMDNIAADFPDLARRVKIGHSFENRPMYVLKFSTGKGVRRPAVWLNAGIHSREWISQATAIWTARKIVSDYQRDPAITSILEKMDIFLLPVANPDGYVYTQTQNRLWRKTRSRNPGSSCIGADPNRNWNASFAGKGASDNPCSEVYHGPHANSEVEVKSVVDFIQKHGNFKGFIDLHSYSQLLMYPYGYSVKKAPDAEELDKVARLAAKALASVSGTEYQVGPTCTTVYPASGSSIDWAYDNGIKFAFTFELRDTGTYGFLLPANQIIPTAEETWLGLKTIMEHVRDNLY
Experimental: as §1, §2

Work on “NvCI: 53-residue, three-disulphide proteinaceous metallocarboxypeptidase inhibitor from the marine snail Nerita versicolor; major isoform; UniProt P86912 (FHVPDDRPCINPGRCPLVPDATCTFVCKAADNDFGYECQHVWTFEGQRVGCYA; disulfide (positions not given here); also: three disulphides, pairing not given here; UniProt P86912 1-53, looked up)” yielded a Ki (hCPA1) of 1.8 ± 0.2 pM, a Ki (hCPA2) of 0.00651 ± 6.86e-05 µM and a Ki (hCPZ) of over 1000 µM. For the same substance, the Ki (hCPA4) was 9.7 ± 1 pM.
